From US20100136018A1 (Ablynx, published 2010)
Values belong to the binder of their own block, whether it stands above or below them.

How the values were obtained:
[1] = molecular target: T1, ectodomain of human pIgR (R&D Systems Cat #2717-PG) (human, UniProt P01833 19-638); experiment: designation in the sequence table; clones from phage selection and ELISA screening on pIgR ectodomain
T1 construct: extracellular domain; Bought protein, immobilised on Maxisorp plates; also called pIgR ectodomain

[2] = molecular target: T1, ectodomain of human pIgR (R&D Systems …); experiment: ELISA, pIgR ectodomain coated at 5 ug/ml, 10 ul periplasmic extract in 100 ul, anti-myc detection
Experimental: (§1) In short, 5 ug/ml pIgR ectodomain was immobilized on Maxisorp microtiter plates (Nunc) and free binding sites were blocked using 4% Marvel in PBS. Next, 10 ul of periplasmic extract containing Nanobody of the different clones in 100 ul 2% Marvel PBST were allowed to bind to the immobilized antigen. […] Binding specificity was determined based on OD values compared to controls having received no Nanobody (low control).

[3] = molecular target: T2, ectodomain of human FcgR1 (R&D Systems Cat #1257-FC) (human, UniProt P12314 16-292); experiment: ELISA, FcgR1 ectodomain coated at 3 ug/ml, 10 ul periplasmic extract in 100 ul, anti-myc detection
T2 construct: extracellular domain; Bought protein, immobilised on Maxisorp plates; also called FcgR1 ectodomain; Fc gamma R1
Experimental: as §1, with “3” for “5”, “FcgR1” for “pIgR”

[4] = molecular target: T2, ectodomain of human FcgR1 (R&D Systems …); experiment: designation in the sequence table; clones from phage selection and ELISA screening on FcgR1 ectodomain
[5] = molecular target: T1, ectodomain of human pIgR (R&D Systems …); experiment: competition ELISA, pIgR ectodomain coated at 5 ug/ml, 1 ug/ml IgA preincubated with purified Nanobody at 1600, 200, 25 and 3.3 nM, bound IgA detected with anti-IgA; blocked ligand IgA

T2 sequence (P12314 16-292): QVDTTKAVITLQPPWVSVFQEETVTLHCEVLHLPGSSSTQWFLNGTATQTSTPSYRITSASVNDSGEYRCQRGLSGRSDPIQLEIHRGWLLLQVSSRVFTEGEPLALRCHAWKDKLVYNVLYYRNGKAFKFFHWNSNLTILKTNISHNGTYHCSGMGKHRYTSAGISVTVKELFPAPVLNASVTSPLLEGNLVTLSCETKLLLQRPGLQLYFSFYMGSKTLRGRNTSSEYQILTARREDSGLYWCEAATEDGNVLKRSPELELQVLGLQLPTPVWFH
T1 sequence (P01833 19-638): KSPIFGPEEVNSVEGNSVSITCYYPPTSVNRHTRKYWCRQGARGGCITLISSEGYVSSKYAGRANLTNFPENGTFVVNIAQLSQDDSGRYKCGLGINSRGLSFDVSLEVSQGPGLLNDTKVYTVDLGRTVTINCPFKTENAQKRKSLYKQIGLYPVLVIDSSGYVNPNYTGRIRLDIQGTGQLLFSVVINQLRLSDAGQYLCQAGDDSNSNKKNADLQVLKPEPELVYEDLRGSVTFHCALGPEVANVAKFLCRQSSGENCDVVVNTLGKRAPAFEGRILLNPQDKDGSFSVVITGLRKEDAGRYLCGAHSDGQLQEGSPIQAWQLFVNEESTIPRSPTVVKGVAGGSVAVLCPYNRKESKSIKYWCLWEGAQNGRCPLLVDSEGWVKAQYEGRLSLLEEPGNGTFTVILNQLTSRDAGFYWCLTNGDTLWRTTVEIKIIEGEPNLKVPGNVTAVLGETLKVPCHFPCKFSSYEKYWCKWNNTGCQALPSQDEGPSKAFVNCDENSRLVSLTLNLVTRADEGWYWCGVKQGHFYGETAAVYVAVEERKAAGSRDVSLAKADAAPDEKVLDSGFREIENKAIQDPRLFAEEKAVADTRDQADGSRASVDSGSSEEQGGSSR

B2: 4 E9 (VHH)
VHH: EVQLVESGGGLVQAGGSLRLSCAASGSILSTNDMGWYRQAPGNQRELVARISRGSSTIYTESVKGRFTISRDNAKNTVYLQMNSLKPEDTAVYYCNADMLPSDLSHGYYYRDYWGQGTQVTVSS
notes: Nanobody against pIgR
binding result [1]: binds

B4: 49C5 (VHH)
VHH: EVQLVESGGGLVQAGGSLGLSCVASGRTFVSGGMGWFRQAPGKEREFVASIVWIGGRTYYADSVKGRFTISGDNAKSTVTLQMNSLKPEDTATYYCADGDLATGTYDYWGQGTQVTVSS
notes: Nanobody against FcgR1
binding result [3]: binds

B5: 49 E10 (VHH)
VHH: EVQLVESVGGLVQTGGSLRLSCVASGRTFVSGGMGWFRQAPGKEREFVAAIVWIGGRTYYADSVKGRFTISGDNAKSTVTLQMNSLKPEDTALYYCADGDLATGTYDYWGQGTQVTVSS
notes: Nanobody against FcgR1
binding result [4]: binds

B9: 4_a7 (VHH)
VHH: EVQLVESGGGLVQAGGSLRLSCEDSGRTFGDYIMGWFRQAPGKERDFVAAISWTGDSTYYKYYSDSAKGRFTASRDNAKNTAYLQMNGLKPEDTAVYYCAARTFRIDYDPRTASTYNYWGQGIQVTVSS
notes: Nanobody against pIgR
binding result [2]: binds

B10: 1D7 (VHH)
VHH: EVQLVESGGGLVQSGGSLRLSCAASGRAFNYYAMGWFRQAPGKERELVAVINWSGGTTSYADSVKGRFTISRSNAKNTVYLQMSSLKPEDTAVYYCAADSIYRTSKDYNYWGQGTQVTVSS
notes: Nanobody against pIgR
IC50 (read off the curve) [5]: ~80 nM

B11: 1C7 (VHH)
VHH: EVQLVESGGGLVQPGGSLRLSCAASGFAFSRYGMYWVRQAPGKGLEWVSTINSGGDYIIYADSVKGRFTISRDNAKNTLYLQMNSLKPEDTAVYYCAEGYRGSEWPPPAFTLQRADFASWGQGTQVTVSS
notes: Nanobody against pIgR
binding result [1]: binds

B12: 4_h1 (VHH)
VHH: EVQLVKSGGGLVQAGDSLRLSCAASGRTSSSVTMGWFRQAPGKERDFVAAISWSGGSTYYADSVKGRFTISRDNAKNTVYLQMNSLKPEDTAVYYCAAVVPSDPIIYYTDYVDYDYWGQGTQVTVSS
notes: Nanobody against pIgR
binding result [2]: binds

B13: 4C11 (VHH)
VHH: EVQLVESGGGLVQPGGSLRLSCAASGFTFSSYAMTWVRQGLGKGLEWVSIISGNGGSTSYADSVKGRFTISRDNAKNTLYLQMNSLKPEDTAVYYCAKWDGLGTLPGSQGTQVTVSS
notes: Nanobody against pIgR
binding result [1]: binds

B14: 1B7 (VHH)
VHH: EVQLVESGGGLVQAGGSLRLSCAASGFTFDDYAIGWFRQAPGKEREWVSCISRSDGSTYYADSVKGRFTISSDNAKNTVYLQMNSLKPEDTAVYHCAADAIGSFPCPAGVYDYWGQGTQVTVSS
notes: Nanobody against pIgR
binding result [1]: binds

B17: 1 E2 (VHH)
VHH: EVQLVESGGGLVQAGGSLRLSCVASGFILREYNMGWFRQAPGKEREIVAAIAWTGTNSYYVDSVKGRFTISRDDTKNTVYLQMNSLNPEDTGVYHCAAEGYVSNFPRSSADEYDYWGQGTQVTVSS
notes: Nanobody against pIgR
binding result [1]: binds

B18: 48D11 (VHH)
VHH: EVQLVESGGGLVQAGDSLTLSCVASGRTFSNYGMGWFRQAPGKEREFVASINWGDGNTYYANSVKDRFAISKDHAKNTVYLQMNSLKPEDTALYYCAAVSSNTEIFDTWGQGIQVTVSS
notes: Nanobody against FcgR1
binding result [4]: binds

B19: 49 E4 (VHH)
VHH: EVQLVESGGGLVQAGDSLTLSCVASGRTFNNYGMGWFRQAPGKEREFVASINWGNGKTYYANSVKDRFAISKDHAKNTVYLQMNSLKPEDTALYYCAAVSSNTETFDTWGQGIQVTVSS
notes: Nanobody against FcgR1
binding result [3]: binds

B20: 49F4 (VHH)
VHH: EVQLVESGGGLVQAGDSLTLSCVASGRTFSANGMGWFRQAPGKEREFVASIAWGDGNTYYANSVKDRFAISKDHAKNTVYLQMNSLKPEDTALYYCAAVSSNSETFDTWGQGIQVTVSS
notes: Nanobody against FcgR1
binding result [4]: binds

B21: 49D4 (VHH)
VHH: EVQLVESGGGLVQAGDSLTLSCVASGRRFSAYGMGWFRQAPGKEREFVASINWGDGNTYYANSVKDRFAISKDHAKNTVYLQMNSLKPEDTALYYCAAVSSNTEIFDTWGQGIQVTVSS
notes: Nanobody against FcgR1
binding result [3]: binds

B23: 49F9 (VHH)
VHH: EVQLVESGGGLVQAGDSLTLSCVASGRTFNNYGMGWFRQAPGKEREFVASINWGNGKTYYANPVKDRFAISKDHAKNTVYLQMNSLKPEDTALYYCAAVSSNTETFDTWGQGIQVTVSS
notes: Nanobody against FcgR1
binding result [3]: binds

Other lines, results leading:

binding result [1]: binds
B1: 2_d2 (VHH)
VHH: EVQLVESGGGQVQAGGSLRLSCVASERTFSYYDLAARAWFRQAPGKERELVSASTWNGGYTYYVDSVKGRFTVSTDDAGDTMYLQMNSLEPEDTAVYYCAARRAYSSDLHDYRTFDYWGQGTQVTVSS
notes: Nanobody against pIgR

binding result [2]: binds
B3: 1_g10 (VHH)
VHH: EVQLVESGGGLVQAGDSLRLSCAASGRTFSTYAMAWFRQAPGKDREFVAAISWSSDMTYYLDSVKGRFTISRDNAKNTVFLQMNSLKPEDTAVYYCASGAYYAGSSTSPYNYWGQGTQVTVSS
notes: Nanobody against pIgR

binding result [1]: binds
B6: 1C2 (VHH)
VHH: EVQLVESGGGLAQPGGSLRLSCAASGFAFSSYWMYWVRQAPGKGLEWVSAISTGGGGTYYADSVKGRFTISRDNAKNTLYLQMNSLKPEDTARYYCARDEAPTFDYSGNYAYTGSDPNDYWGQGTQVTVSS
notes: Nanobody against pIgR

binding result [1]: binds
B7: 2_f3 (VHH)
VHH: EVQLVESGGGLVQAGGSLRLSCAASGRTFTIYTMGWFRQAPGKAREFISALRWSGGSTYTFYADSVKGRFTISRDNAKNTLYLQMNSLKSEDTAIYYCGMVDPRAPYMRPDSTDSYAYWGQGTQVTVSS
notes: Nanobody against pIgR

binding result [1]: binds
B8: 4_e11 (VHH)
VHH: EVQLVESGGGLVQAGGSLRLSCAASGFTFDDYAIGWFRQAPGKEREGVSCINNSDGSTYYADSVKGRFTISSDNAKNTVYLQMNSLKPEDTAVYYCAADFVGGSYCLFPTYNYWGQGTQVTVSS
notes: Nanobody against pIgR

binding result [1]: binds
B15: 4G11 (VHH)
VHH: EVQLVESGGGLVQAGGSLRLSCAASGFTFDDYAIGWFRQAPGKEREGVSCISSRDGMTYYADSVKGRFTISSDNARNTVYLQMNSLKPEDTAVYYCAADLVGSFPCPVAAYDYWGQGTQVTVSS
notes: Nanobody against pIgR

binding result [2]: binds
B16: 4_g6 (VHH)
VHH: EVQLVESGGGLVQAGGSLRLSCAASGFTFDDYAIGWFRQAPGKEREGVSCISSRDGTTYYADSVKGRFTISSDNAKNTVYLQMNSLKPEDTAVYYCAADLVGSFPCPVAAYDYWGQGTQVTVSS
notes: Nanobody against pIgR

binding result [3]: binds
B22: 48D6 (VHH)
VHH: EVQLVESGGGLVQAGDSLTLSCVASGRTFSAYGMGWFRQAPGKEREFVASINWGGGNTYYANSVKDRFAISKDHAKNTVYLQMNSLKPEDTALYYCAAVSSNTEIFDTWGQGIQVTVSS
notes: Nanobody against FcgR1
